Laboratory results as given in US20250223369A1 (WISTAR INSTITUTE OF ANATOMY AND BIOLOGY, published 2025).

Assays:
[1] = biological target: T1, recombinant human Siglec-7 protein (human, UniProt Q9Y286 19-353, limits assumed); assay: SPR, titration of anti-Siglec-7 on recombinant human Siglec-7 protein
human Siglec 7 on cells [2] = biological target: T2, human Siglec 7 on cells (human, UniProt Q9Y286 19-467); assay: cell-based or functional assay
Siglec 9 on 293T cells = biological target: T3, Siglec 9 on 293T cells (UniProt Q9Y336 18-463, limits assumed); assay: flow cytometry on Siglec 9 overexpressing HEK293T cells
T3 construct: whole, on cells
Description: BD LSRII flow cytometer was used for staining of cells. BD FACS Aria cell sorter (BD Biosciences) was used for the sorting of Siglec 7/FSHR stably expressing cells. Anti-human antibodies used were directly fluorochrome conjugated. […] For the non-conjugated primary antibodies, PE-secondary anti-human (H+L) (Invitrogen), PE/AF647—secondary anti-human F(ab′)₂ (Jackson ImmunoResearch Laboratories Inc) and APC—secondary anti-mouse IgG (Poly4053, BioLegend) were used. Live/Dead Violet viability kit (Invitrogen) was used to exclude dead cells from analysis.
Three mAbs targeting Siglec 7 were sequenced and studied in more detail. […] (FIG. 10B). […] Cells were labeled with DAPI (nuclei), GFP (Siglec 7) and Texas Red (Anti-Siglec 7).

[3] = biological target: T1, recombinant human Siglec-7 protein; assay: SPR, DB7.2 and recombinant human Siglec-7 protein
human Siglec 7 on cells [4] = biological target: T2, human Siglec 7 on cells; assay: flow cytometry of human NK cells with sera of DMAb-electroporated mice, anti-human IgG

T2 sequence (Q9Y286 19-467): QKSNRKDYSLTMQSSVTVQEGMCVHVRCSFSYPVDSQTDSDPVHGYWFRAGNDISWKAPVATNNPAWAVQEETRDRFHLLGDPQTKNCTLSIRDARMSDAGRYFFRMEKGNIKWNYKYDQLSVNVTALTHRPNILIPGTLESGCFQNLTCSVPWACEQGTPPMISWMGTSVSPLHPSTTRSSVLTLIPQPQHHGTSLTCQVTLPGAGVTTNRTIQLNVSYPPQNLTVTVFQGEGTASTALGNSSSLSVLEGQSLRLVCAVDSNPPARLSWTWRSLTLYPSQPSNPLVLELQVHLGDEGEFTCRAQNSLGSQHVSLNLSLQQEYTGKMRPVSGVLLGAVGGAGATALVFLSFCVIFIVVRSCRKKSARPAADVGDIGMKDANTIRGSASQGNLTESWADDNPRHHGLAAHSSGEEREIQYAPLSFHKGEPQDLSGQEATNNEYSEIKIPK
T3 sequence (Q9Y336 18-463 limits assumed): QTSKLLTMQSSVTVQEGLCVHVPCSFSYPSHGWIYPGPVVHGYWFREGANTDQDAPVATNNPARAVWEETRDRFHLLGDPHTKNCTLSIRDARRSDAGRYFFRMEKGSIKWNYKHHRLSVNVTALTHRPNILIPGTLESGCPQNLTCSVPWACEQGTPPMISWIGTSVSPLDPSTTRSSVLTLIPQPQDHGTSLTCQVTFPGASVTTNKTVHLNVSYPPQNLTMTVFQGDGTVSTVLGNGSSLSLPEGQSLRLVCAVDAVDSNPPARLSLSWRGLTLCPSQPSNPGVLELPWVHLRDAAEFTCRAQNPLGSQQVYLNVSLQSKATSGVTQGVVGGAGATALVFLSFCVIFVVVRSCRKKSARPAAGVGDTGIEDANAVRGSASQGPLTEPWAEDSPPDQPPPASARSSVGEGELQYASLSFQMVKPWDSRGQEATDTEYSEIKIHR
T1 sequence (Q9Y286 19-353 limits assumed): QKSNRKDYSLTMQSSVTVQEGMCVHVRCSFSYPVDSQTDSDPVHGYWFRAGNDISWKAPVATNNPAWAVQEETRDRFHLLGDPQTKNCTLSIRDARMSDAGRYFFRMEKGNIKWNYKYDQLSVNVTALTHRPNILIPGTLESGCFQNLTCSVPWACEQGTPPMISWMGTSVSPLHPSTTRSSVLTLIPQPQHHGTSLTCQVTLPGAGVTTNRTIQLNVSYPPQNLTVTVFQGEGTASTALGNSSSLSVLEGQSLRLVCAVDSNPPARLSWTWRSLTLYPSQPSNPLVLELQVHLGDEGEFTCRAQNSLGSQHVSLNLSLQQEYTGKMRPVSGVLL

B1: DB-S7-2 anti-Siglec 7 antibody (antibody, V domains shown)
VH: QVQLVESGGGVVQPGRSLRLSCAASGFTFRTDAMHWVRQAPGKGLEWVAVIWYDGSIKYHADSVKGRFTISRDNSKNTLYLEMNSLRAEDTAVYYCARDRSNSLDHWGQGILVSVSS
VL: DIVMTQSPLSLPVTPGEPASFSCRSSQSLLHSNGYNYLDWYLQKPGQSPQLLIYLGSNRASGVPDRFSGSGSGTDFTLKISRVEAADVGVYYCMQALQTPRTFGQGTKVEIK
notes: Raised in H2L2 mice (hybridoma clone in the first screens), then expressed as human IgG1 HC and LC from pVax1 in Expi293F cells or in mice (DMAb); also called DB7.2; DB-S7-2 DMAb
With B1 the Kd [1] was 0.044 nM, the “killing of OVISE cells with human PBMCs (cell index vs dose), IC50” value (human Siglec 7 on cells [2]) was 82.7 nM and the “killing of PEO4 cells with human PBMCs (xCELLigence), EC50” value (human Siglec 7 on cells [2]) was 68.9 nM. The binding result (Siglec 9 on 293T cells) was “no binding”, the koff [3] was 3.6e-05 s⁻¹ and the kon [3] was 830000 M⁻¹ s⁻¹. It also gave a t1/2 [3] of 5.33 h.

B2: DB-S7-1 anti-Siglec 7 antibody (antibody, V domains shown)
VH: QVQLVESGGGVVQPGRSLRLSCAASGFTFRTDAMHWVRQAPGKGLEWVAVIWYDGSIKYHADSVKGRFTISRDNSKNTLYLEMNSLRAEDTAVYYCARDRSNSLDHWGQGILVSVSS
VL: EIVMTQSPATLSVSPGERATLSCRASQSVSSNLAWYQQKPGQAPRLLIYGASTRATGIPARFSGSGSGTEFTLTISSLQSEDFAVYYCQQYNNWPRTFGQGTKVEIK
notes: Raised in H2L2 mice (hybridoma clone in the first screens), then expressed as human IgG1 HC and LC from pVax1 in Expi293F cells or in mice (DMAb); also called DB7.1; DB-S7-1 DMAb
B2: no binding (Siglec 9 on 293T cells); binds (human Siglec 7 on cells [4]).

B3: DB7.2_TM Mod (antibody, V domains shown)
VH: QVQLVESGGGVVQPGRSLRLSCAASGFTFRTDAMHWVRQAPGKGLEWVAVIWYDGSIKYHADSVKGRFTISRDNSKNTLYLEMNSLRAEDTAVYYCARDRSNSLDHWGQGILVSVSS
VL: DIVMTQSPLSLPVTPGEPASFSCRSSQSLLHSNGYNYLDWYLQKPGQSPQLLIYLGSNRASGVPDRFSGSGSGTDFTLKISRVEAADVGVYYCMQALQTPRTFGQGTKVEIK
With B3 the “killing of OVISE cells with human PBMCs (cell index vs dose), IC50” value (human Siglec 7 on cells [2]) was 192 nM.

B4: DB-S7-7 anti-Siglec 7 antibody (antibody, V domains shown)
VH: QVQLVESGGGVVQPGRSLRLSCAASGFTFRTDAMHWVRQAPGKGLEWVAVIWYDGSIKYHADSVKGRFTISRDNSKNTLYLEMNSLRAEDTAVYYCARDRSNSLDHWGQGILVSVSS
VL: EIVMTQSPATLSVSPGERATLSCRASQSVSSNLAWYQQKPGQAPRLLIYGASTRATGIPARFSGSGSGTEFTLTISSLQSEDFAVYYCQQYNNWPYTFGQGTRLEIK
notes: Raised in H2L2 mice (hybridoma clone in the first screens), then expressed as human IgG1 HC and LC from pVax1 in Expi293F cells or in mice (DMAb); also called DB7.7; DB-S7-7 DMAb
B4: no binding (Siglec 9 on 293T cells).
